B1: CD2-associated protein, residues 109 to 169; numbered along this chain, Q9Y5K6 (parent)
chain: KKRQCKVLFEYIPQNEDELELKVGDIIDINEEVEEGWWSGTLNNKLGLFPSNFVKELEVTD

± gives the uncertainty stated by the source.

In this series the parent is B1. The series is described as follows: abundance fitness (aPCA) (normalised: wild type 0, dead -1); higher = more abundant; growth selection in yeast, the domain comes from the species named. Conditions: Homo sapiens.
KKRQCKVLFEYIPQNEDELELKVGDIIDHNEEVEEGWWSGTLNNKLGLFPSNFVKELEVTD: the abundance fitness was -0.482 ± 0.28.

Turning to KKRQCKVLFEYIPQNEDELELKVGDIIDNNEEVEEGWWSGTLNNKLGLFPSNFVKELEVTD, the abundance fitness was -0.431 ± 0.21.

KKRQCKVLFEYIPQNEDELELKVGDIIDENEEVEEGWWSGTLNNKLGLFPSNFVKELEVTD: the abundance fitness was -0.78 ± 0.36.

For the variant KKRQCKVLFEYIPQNEDELELKVGDIIDFNEEVEEGWWSGTLNNKLGLFPSNFVKELEVTD, the abundance fitness is -0.274 ± 0.15.

In the case of KKRQCKVLFEYIPQNEDELELKVGDIIDLNEEVEEGWWSGTLNNKLGLFPSNFVKELEVTD, the abundance fitness was -0.219 ± 0.077.

Turning to KKRQCKVLFEYIPQNEDELELKVGDIIDANEEVEEGWWSGTLNNKLGLFPSNFVKELEVTD, the abundance fitness is -0.833 ± 0.35.

KKRQCKVLFEYIPQNEDELELKVGDIIDTNEEVEEGWWSGTLNNKLGLFPSNFVKELEVTD: the abundance fitness was -0.543 ± 0.19.

For KKRQCKVLFEYIPQNEDELELKVGDIIDGNEEVEEGWWSGTLNNKLGLFPSNFVKELEVTD, the abundance fitness was -0.31 ± 0.24.

Consider KKRQCKVLFEYIPQNEDELELKVGDIIDRNEEVEEGWWSGTLNNKLGLFPSNFVKELEVTD, for which the abundance fitness was -0.678 ± 0.22.

For the variant KKRQCKVLFEYIPQNEDELELKVGDIIDSNEEVEEGWWSGTLNNKLGLFPSNFVKELEVTD, the abundance fitness is -0.737 ± 0.22.

On to KKRQCKVLFEYIPQNEDELELKVGDIIDCNEEVEEGWWSGTLNNKLGLFPSNFVKELEVTD, for which the abundance fitness is -0.57 ± 0.28.

Regarding KKRQCKVLFEYIPQNEDELELKVGDIIDQNEEVEEGWWSGTLNNKLGLFPSNFVKELEVTD, the abundance fitness is -0.823 ± 0.27.

For KKRQCKVLFEYIPQNEDELELKVGDIIDWNEEVEEGWWSGTLNNKLGLFPSNFVKELEVTD, the abundance fitness was -0.693 ± 0.2.

For the variant KKRQCKVLFEYIPQNEDELELKVGDIIDKNEEVEEGWWSGTLNNKLGLFPSNFVKELEVTD, the abundance fitness was -0.63 ± 0.26.

Turning to KKRQCKVLFEYIPQNEDELELKVGDIIDPNEEVEEGWWSGTLNNKLGLFPSNFVKELEVTD, the abundance fitness was -0.625 ± 0.21.

KKRQCKVLFEYIPQNEDELELKVGDIIDYNEEVEEGWWSGTLNNKLGLFPSNFVKELEVTD: the abundance fitness is -0.886 ± 0.31.

As to KKRQCKVLFEYIPQNEDELELKVGDIIDVNEEVEEGWWSGTLNNKLGLFPSNFVKELEVTD, the abundance fitness amounted to 0.085 ± 0.35.

Take KKRQCKVLFEYIPQNEDELELKVGDIIDMNEEVEEGWWSGTLNNKLGLFPSNFVKELEVTD: the abundance fitness worked out at 0.038 ± 0.16.

Take KKRQCKVLFEYIPQNEDELELKVGDIIDIPEEVEEGWWSGTLNNKLGLFPSNFVKELEVTD: the abundance fitness was -0.438 ± 0.32.

As to KKRQCKVLFEYIPQNEDELELKVGDIIDISEEVEEGWWSGTLNNKLGLFPSNFVKELEVTD, the abundance fitness is -0.11 ± 0.1.

In the case of KKRQCKVLFEYIPQNEDELELKVGDIIDIREEVEEGWWSGTLNNKLGLFPSNFVKELEVTD, the abundance fitness was -0.171 ± 0.11.

KKRQCKVLFEYIPQNEDELELKVGDIIDIQEEVEEGWWSGTLNNKLGLFPSNFVKELEVTD: the abundance fitness is -0.043 ± 0.19.

In the case of KKRQCKVLFEYIPQNEDELELKVGDIIDIMEEVEEGWWSGTLNNKLGLFPSNFVKELEVTD, the abundance fitness is -0.151 ± 0.18.

As for KKRQCKVLFEYIPQNEDELELKVGDIIDIEEEVEEGWWSGTLNNKLGLFPSNFVKELEVTD, the abundance fitness turned out to be 0.302 ± 0.24.

As for KKRQCKVLFEYIPQNEDELELKVGDIIDIAEEVEEGWWSGTLNNKLGLFPSNFVKELEVTD, the abundance fitness is -0.305 ± 0.47.

As to KKRQCKVLFEYIPQNEDELELKVGDIIDIVEEVEEGWWSGTLNNKLGLFPSNFVKELEVTD, the abundance fitness was determined as 0.101 ± 0.15.

Regarding KKRQCKVLFEYIPQNEDELELKVGDIIDIDEEVEEGWWSGTLNNKLGLFPSNFVKELEVTD, the abundance fitness is -0.123 ± 0.29.

KKRQCKVLFEYIPQNEDELELKVGDIIDICEEVEEGWWSGTLNNKLGLFPSNFVKELEVTD: the abundance fitness is -0.256 ± 0.42.

Turning to KKRQCKVLFEYIPQNEDELELKVGDIIDINDEVEEGWWSGTLNNKLGLFPSNFVKELEVTD, the abundance fitness was 0.002 ± 0.23.

In the case of KKRQCKVLFEYIPQNEDELELKVGDIIDINLEVEEGWWSGTLNNKLGLFPSNFVKELEVTD, the abundance fitness was -0.367 ± 0.12.

Consider KKRQCKVLFEYIPQNEDELELKVGDIIDINMEVEEGWWSGTLNNKLGLFPSNFVKELEVTD, for which the abundance fitness was -0.26 ± 0.17.

With KKRQCKVLFEYIPQNEDELELKVGDIIDINIEVEEGWWSGTLNNKLGLFPSNFVKELEVTD, the abundance fitness was -0.116 ± 0.44.

As to KKRQCKVLFEYIPQNEDELELKVGDIIDINGEVEEGWWSGTLNNKLGLFPSNFVKELEVTD, the abundance fitness was -0.187 ± 0.16.

As for KKRQCKVLFEYIPQNEDELELKVGDIIDINAEVEEGWWSGTLNNKLGLFPSNFVKELEVTD, the abundance fitness is -0.052 ± 0.1.

For KKRQCKVLFEYIPQNEDELELKVGDIIDINPEVEEGWWSGTLNNKLGLFPSNFVKELEVTD, the abundance fitness was -0.855 ± 0.46.

KKRQCKVLFEYIPQNEDELELKVGDIIDINFEVEEGWWSGTLNNKLGLFPSNFVKELEVTD: the abundance fitness is -0.584 ± 0.49.

Consider KKRQCKVLFEYIPQNEDELELKVGDIIDINNEVEEGWWSGTLNNKLGLFPSNFVKELEVTD, for which the abundance fitness is -0.016 ± 0.22.

As to KKRQCKVLFEYIPQNEDELELKVGDIIDINQEVEEGWWSGTLNNKLGLFPSNFVKELEVTD, the abundance fitness was -0.23 ± 0.15.

Take KKRQCKVLFEYIPQNEDELELKVGDIIDINKEVEEGWWSGTLNNKLGLFPSNFVKELEVTD: the abundance fitness stood at 0.109 ± 0.12.

Turning to KKRQCKVLFEYIPQNEDELELKVGTIIDINEEVEEGWWSGTLNNKLGLFPSNFVKELEVTD, the abundance fitness is -0.495 ± 0.25.

In the case of KKRQCKVLFEYIPQNEDELELKVGVIIDINEEVEEGWWSGTLNNKLGLFPSNFVKELEVTD, the abundance fitness is -0.733 ± 0.2.

Take KKRQCKVLFEYIPQNEDELELKVGRIIDINEEVEEGWWSGTLNNKLGLFPSNFVKELEVTD: the abundance fitness is -0.484 ± 0.22.

As to KKRQCKVLFEYIPQNEDELELKVGDDIDINEEVEEGWWSGTLNNKLGLFPSNFVKELEVTD, the abundance fitness was -0.599 ± 0.31.

The record behind these values is the Human Domainome abundance scans (Beltran et al. 2025).
